Data published in PMC11830004, “In situ and in vitro cryo-EM reveal structures of mycobacterial encapsulin assembly intermediates” (Communications Biology, 2025).
“And” between values parts separate entries of the source, which are not always exact repeats. Equal values may be shown once.

Biological target: the molecule itself
Experiment: cryo-EM structure

B1: Mycobacterium tuberculosis encapsulin shell protein (Enctb) (natural protein)
chain: MNNLYRDLAPVTEAAWAEIELEAARTFKRHIAGRRVVDVSDPGGPVTAAVSTGRLIDVKAPTNGVIAHLRASKPLVRLRVPFTLSRNEIDDVERGSKDSDWEPVKEAAKKLAFVEDRTIFEGYSAASIEGIRSASSNPALTLPEDPREIPDVISQALSELRLAGVDGPYSVLLSADVYTKVSETSDHGYPIREHLNRLVDGDIIWAPAIDGAFVLTTRGGDFDLQLGTDVAIGYASHDTDTVRLYLQETLTFLCYTAEASVALSH
notes: also called Rv0798c; copies: 60
  stoichiometry N: 60 and 48 and 52 and 54
